From EP4745153A1, “GLP-1, GIP AND GCG RECEPTOR […] USE THEREOF” (Jiangsu Hengrui Pharmaceuticals Co., Ltd., priority 2023, dated 2025)
Starred links: 1 amine or outer side, 2 acyl side, 3 side chain; linkers in the order of their positions; H or OH if unused. Non-standard residues stand in square brackets, D forms with d. Groups on a side chain read outwards from the residue. No end group written: not given here. *: point of attachment. C20 diacid = O=C(O)CCCCCCCCCCCCCCCCCCC(=O)*; γGlu = O=C(O)[C@H](CCC(=O)[*:2])N[*:1]; αMeL = CC(C)C[C@](C)(N)C(=O)O; AEEA = NCCOCCOCC(=O)O; Aib = CC(C)(N)C(=O)O

Tests used:
Assay in all cases: cell-based or functional assay
[1] = biological target: T1, human glucose-dependent insulinotropic polypeptide receptor (human, UniProt P48546 22-466)
T1 sequence (looked up): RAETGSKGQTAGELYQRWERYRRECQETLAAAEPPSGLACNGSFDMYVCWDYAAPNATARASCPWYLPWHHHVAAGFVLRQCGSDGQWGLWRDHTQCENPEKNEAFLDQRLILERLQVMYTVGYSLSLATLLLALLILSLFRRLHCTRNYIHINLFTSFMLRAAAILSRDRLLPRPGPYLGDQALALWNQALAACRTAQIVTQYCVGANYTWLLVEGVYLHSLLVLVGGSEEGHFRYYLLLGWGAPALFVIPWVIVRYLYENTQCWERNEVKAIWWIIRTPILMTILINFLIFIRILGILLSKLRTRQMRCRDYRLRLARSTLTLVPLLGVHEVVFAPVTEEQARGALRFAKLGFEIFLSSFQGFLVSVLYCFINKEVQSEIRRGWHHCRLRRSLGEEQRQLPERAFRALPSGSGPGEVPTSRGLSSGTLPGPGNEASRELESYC

[2] = biological target: human glucagon receptor (human, UniProt P47871 26-477)
[3] = biological target: human glucagon-like peptide-1 receptor (human, UniProt P43220 24-463)

Chain of human glucagon receptor (P47871 26-477): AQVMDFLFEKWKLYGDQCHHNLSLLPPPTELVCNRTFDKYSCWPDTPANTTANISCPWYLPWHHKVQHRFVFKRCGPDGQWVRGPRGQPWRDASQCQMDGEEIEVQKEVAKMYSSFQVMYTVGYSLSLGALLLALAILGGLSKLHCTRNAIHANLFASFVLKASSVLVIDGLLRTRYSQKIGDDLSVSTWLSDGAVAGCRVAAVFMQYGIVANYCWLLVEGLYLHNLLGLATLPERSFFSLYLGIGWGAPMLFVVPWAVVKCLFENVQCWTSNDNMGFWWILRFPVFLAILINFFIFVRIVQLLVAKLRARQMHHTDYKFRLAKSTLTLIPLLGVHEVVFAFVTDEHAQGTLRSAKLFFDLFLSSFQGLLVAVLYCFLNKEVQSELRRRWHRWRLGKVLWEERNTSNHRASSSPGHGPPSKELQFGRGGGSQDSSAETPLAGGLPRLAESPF

Binder	Activity against human GIPR (EC50 nM) [1] [nM]	Activity against human GCGR (EC50 nM) [2] [nM]	Activity against human GLP-1R (EC50 nM) [3] [nM]
H[Aib]QGTFTSDYSILLEK([AEEA-AEEA-γGlu-C20 diacid])KAAQEFVEWLLAGGPSSGAPPPS-NH2 (N-terminus assumed; SMILES CC[C@H](C)[C@H](NC(=O)[C@H](CO)NC(=O)[C@H](Cc1ccc(O)cc1)NC(=O)[C@H](CC(=O)O)NC(=O)[C@H](CO)NC(=O)[C@@H](NC(=O)[C@H](Cc1ccccc1)NC(=O)[C@@H](NC(=O)CNC(=O)[C@H](CCC(N)=O)NC(=O)C(C)(C)NC(=O)[C@@H](N)Cc1c[nH]cn1)[C@@H](C)O)[C@@H](C)O)C(=O)N[C@@H](CC(C)C)C(=O)N[C@@H](CC(C)C)C(=O)N[C@@H](CCC(=O)O)C(=O)N[C@@H](CCCCNC(=O)COCCOCCNC(=O)COCCOCCNC(=O)CC[C@H](NC(=O)CCCCCCCCCCCCCCCCCCC(=O)O)C(=O)O)C(=O)N[C@@H](CCCCN)C(=O)N[C@@H](C)C(=O)N[C@@H](C)C(=O)N[C@@H](CCC(N)=O)C(=O)N[C@@H](CCC(=O)O)C(=O)N[C@@H](Cc1ccccc1)C(=O)N[C@H](C(=O)N[C@@H](CCC(=O)O)C(=O)N[C@@H](Cc1c[nH]c2ccccc12)C(=O)N[C@@H](CC(C)C)C(=O)N[C@@H](CC(C)C)C(=O)N[C@@H](C)C(=O)NCC(=O)NCC(=O)N1CCC[C@H]1C(=O)N[C@@H](CO)C(=O)N[C@@H](CO)C(=O)NCC(=O)N[C@@H](C)C(=O)N1CCC[C@H]1C(=O)N1CCC[C@H]1C(=O)N1CCC[C@H]1C(=O)N[C@@H](CO)C(N)=O)C(C)C) [Compound No. 0154]	0.031	1.62	0.033
H[Aib]QGTFTSDYSI[αMeL]LEK([AEEA-AEEA-γGlu-C20 diacid])KAAQEFVEWLLAGGPSSGAPPPS-NH2 (N-terminus assumed; SMILES CC[C@H](C)[C@H](NC(=O)[C@H](CO)NC(=O)[C@H](Cc1ccc(O)cc1)NC(=O)[C@H](CC(=O)O)NC(=O)[C@H](CO)NC(=O)[C@@H](NC(=O)[C@H](Cc1ccccc1)NC(=O)[C@@H](NC(=O)CNC(=O)[C@H](CCC(N)=O)NC(=O)C(C)(C)NC(=O)[C@@H](N)Cc1c[nH]cn1)[C@@H](C)O)[C@@H](C)O)C(=O)N[C@@](C)(CC(C)C)C(=O)N[C@@H](CC(C)C)C(=O)N[C@@H](CCC(=O)O)C(=O)N[C@@H](CCCCNC(=O)COCCOCCNC(=O)COCCOCCNC(=O)CC[C@H](NC(=O)CCCCCCCCCCCCCCCCCCC(=O)O)C(=O)O)C(=O)N[C@@H](CCCCN)C(=O)N[C@@H](C)C(=O)N[C@@H](C)C(=O)N[C@@H](CCC(N)=O)C(=O)N[C@@H](CCC(=O)O)C(=O)N[C@@H](Cc1ccccc1)C(=O)N[C@H](C(=O)N[C@@H](CCC(=O)O)C(=O)N[C@@H](Cc1c[nH]c2ccccc12)C(=O)N[C@@H](CC(C)C)C(=O)N[C@@H](CC(C)C)C(=O)N[C@@H](C)C(=O)NCC(=O)NCC(=O)N1CCC[C@H]1C(=O)N[C@@H](CO)C(=O)N[C@@H](CO)C(=O)NCC(=O)N[C@@H](C)C(=O)N1CCC[C@H]1C(=O)N1CCC[C@H]1C(=O)N1CCC[C@H]1C(=O)N[C@@H](CO)C(N)=O)C(C)C) [Compound No. 0155]	0.014	3.65	0.036
